Data reported in publication doi:10.1101/2022.11.28.518222.

Molecular target: IRF6 (human, UniProt O14896 1-467)
Assay: EMSA

B1: IRF6 motif trimer EMSA probe (dsDNA)
DNA 1: TGGTTTCGGTTGACTTGGTTTCGGTTGACTTGGTTTCGGTTGA
DNA 2: TCAACCGAAACCAAGTCAACCGAAACCAAGTCAACCGAAACCA
binding result: binds
